± gives the standard deviation of the averaged measurements.
System: ATP
Assay: switch fluorescence ratio, 500 uM ATP over buffer (Cy3 cluster intensity, sum of 5 cycles each) (fold (ratio)); higher = stronger signal-on switching upon ATP binding; sequences stand for … in TCGTCGGCAGCGTCAGATGTGTATAAGAGACAGTTTTTTTTTTTTTTTTTTTTTTTTT…TC
Conditions: aptamer strand: ATP DNA aptamer (quencher-CACCTGGGGGAGTATTGCGGAGGAAGG + anchor), 100 nM annealed; ATP concentration: 500 uM
Procedure, shortened: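 The fluorescence ratio divides summed target-cycle Cy3 intensity by summed buffer-cycle Cy3 intensity for each cluster and is averaged per switch-domain sequence. Cy3-labelled switching-strand clusters on a modified Illumina MiSeq flow-cell were annealed to 100 nM quencher-labelled ATP aptamer, then imaged in selection buffer and again after 15 min with 500 uM ATP at 22 °C. Five such cycles were run, with NaOH stripping and re-annealing between them, and clusters outside 100-1000 RFU were excluded.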
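Further: ATP exposure 15 min at 22 °C before imaging.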

Sequence | switch fluorescence ratio
GAAGTGCATT | 0.98 ± 0.053
GAAGTGGGAT | 0.984 ± 0.022
GAAGTGGGTG | 1.11 ± 0.17
GAAGTGTGGC | 1.08 ± 0.031
GAAGTTAGTT | 0.993 ± 0.038
GAAGTTGGAG | 0.97 ± 0.053
GAAGTTGTCG | 1.02 ± 0.02
GAATAAGAGA | 0.974 ± 0.036
GAATAAGATC | 1.02 ± 0.042
GAATAAGATT | 1.01 ± 0.061
GAATAAGGTA | 0.993 ± 0.011
GAATATTGTA | 0.988 ± 0.013
GAATATTTAA | 0.998 ± 0.014
GAATCACTAA | 1 ± 0.059
GAATCAGGG | 0.972 ± 0.034
GAATCATAGT | 1.003 ± 0.0083
GAATCCGGTT | 0.989 ± 0.019
GAATCCGTAG | 1.16 ± 0.03
GAATCGGTAG | 0.9783 ± 0.0013
GAATCTTGCG | 0.95976 ± 0.00094
GAATGAGAGA | 1 ± 0.037
GAATGGAGCC | 0.995 ± 0.022
GAATGGCATG | 0.991 ± 0.034
GAATGGCTGC | 1.04 ± 0.0048
GAATGGGAGG | 0.975 ± 0.02

Sequence | switch fluorescence ratio
GAATGGGATT | 0.976 ± 0.018
GAATGGGGGG | 1.01 ± 0.078
GAATGGGGTA | 1.011 ± 0.0057
GAATGGGTTA | 0.965 ± 0.018
GAATGGTCGC | 0.963 ± 0.026
GAATGTAGTC | 1.01 ± 0.013
GAATGTGGGT | 0.994 ± 0.013
GAATGTTAAT | 1.04 ± 0.027
GAATTAAATA | 1.02 ± 0.018
GAATTAGCAC | 1.05 ± 0.038
GAATTATTGT | 0.959 ± 0.022
GAATTATTTT | 1.12 ± 0.16
GAATTCACGG | 1.06 ± 0.038
GAATTGGATC | 1.02 ± 0.019
GAATTGGGCT | 0.9679 ± 0.0032
GAATTGGGGA | 1.01 ± 0.029
GAATTGGTAA | 1.013 ± 0.0076
GAATTTAGTC | 1.06 ± 0.077
GAATTTCGAT | 0.976 ± 0.011
GAATTTGGGG | 0.961 ± 0.03
GAATTTTAGG | 0.9889 ± 0.0096
GAATTTTTGG | 0.997 ± 0.017
GAATTTTTGT | 0.956 ± 0.018
GAATTTTTTA | 0.999 ± 0.018
GACACAGTGT | 0.98 ± 0.026

Sequence | switch fluorescence ratio
GACACGTGTT | 1.03 ± 0.045
GACACTATTG | 0.999 ± 0.016
GACACTGCCC | 1.13 ± 0.048
GACAGAAGTG | 1.02 ± 0.019
GACAGCAGGT | 1.07 ± 0.011
GACAGCGGGT | 1.01 ± 0.015
GACAGGGCGG | 0.983 ± 0.049
GACAGGGGTT | 1.04 ± 0.015
GACAGGGTTA | 1.001 ± 0.0086
GACAGGTATC | 1.01 ± 0.057
GACAGTGTGG | 0.997 ± 0.049
GACAGTTGGG | 0.999 ± 0.017
GACATAAAAA | 0.986 ± 0.076
GACATAAGTT | 1 ± 0.044
GACATATTAT | 1.013 ± 0.0057
GACATCCCCT | 1.04 ± 0.047
GACATGAAGG | 1 ± 0.015
GACATGGCAG | 1.02 ± 0.04
GACATGGCGG | 1.01 ± 0.024
GACATGGGGA | 1.06 ± 0.015
GACATGGGTG | 1.02 ± 0.031
GACATTAGTC | 0.99 ± 0.011
GACATTTCTT | 1.01 ± 0.011
GACATTTTTA | 0.975 ± 0.022
GACCCAGGTA | 2.75 ± 0.18

Sequence | switch fluorescence ratio
GACCCGCTAA | 4.18 ± 0.3
GACCGAGTTC | 1.005 ± 0.0024
GACCGGATTC | 1.06 ± 0.11
GACCGGGAGC | 0.995 ± 0.011
GACCGGGCTC | 0.97643 ± 0.00079
GACCTCGGGA | 1.024 ± 0.0028
GACCTGAGCA | 1.113 ± 0.0034
GACCTTAATG | 1.05 ± 0.013
GACCTTTAAA | 1.02 ± 0.011
GACGAAGCAT | 5.33 ± 0.82
GACGACGGAG | 0.969 ± 0.034
GACGAGGAGG | 1 ± 0.017
GACGAGTGTG | 0.98731 ± 0.00011
GACGATAGAT | 1.048 ± 0.00083
GACGATATGT | 1.07 ± 0.041
GACGATGCGG | 1.196 ± 0.0058
GACGATGTCT | 1.0078 ± 0.00071
GACGCATTTT | 2.18 ± 0.17
GACGCGTTTA | 1.07 ± 0.034
GACGCTCAGC | 1.39 ± 0.019
GACGGCTGGT | 1.01 ± 0.021
GACGGGATTT | 1.03 ± 0.03
GACGGTAGGG | 0.969 ± 0.051
GACGGTTAAA | 1.12 ± 0.11
GACGGTTATC | 1.11 ± 0.059

Sequence | switch fluorescence ratio
GACGGTTATT | 1.002 ± 0.0036
GACGGTTCGT | 1.01 ± 0.022
GACGTATCAA | 1.04 ± 0.025
GACGTATCGT | 0.989 ± 0.032
GACGTATTGC | 1.27 ± 0.061
GACGTCAGCG | 1.05 ± 0.059
GACGTTATGT | 1 ± 0.019
GACGTTGTGG | 1.03 ± 0.014
GACGTTTATG | 0.949 ± 0.099
GACTAAAGTG | 1.01 ± 0.044
GACTAAATGA | 1.01 ± 0.016
GACTAATAGG | 0.992 ± 0.012
GACTACCCCT | 1.234 ± 0.011
GACTACTGCA | 1.13 ± 0.046
GACTAGGTCG | 1.16 ± 0.22
GACTAGTGAC | 1.01 ± 0.021
GACTATTAGA | 0.9918 ± 0.0057
GACTATTGTT | 1 ± 0.015
GACTGAGAAG | 0.945 ± 0.011
GACTGAGAGA | 1.024 ± 0.0035
GACTGAGGTA | 0.99 ± 0.031
GACTGCAGGT | 1.01 ± 0.033
GACTGCGGGG | 0.987 ± 0.038
GACTGCTACT | 1.51 ± 0.028
GACTGGGCGA | 1.02 ± 0.029

Sequence | switch fluorescence ratio
GACTGGGGAT | 0.995 ± 0.025
GACTGGTATT | 0.991 ± 0.019
GACTGGTTGG | 1.02 ± 0.029
GACTGGTTTT | 1.01 ± 0.033
GACTGTAAAG | 0.967 ± 0.089
GACTGTTCCG | 0.958 ± 0.0055
GACTTAAGGC | 1.005 ± 0.0011
GACTTAGTGC | 1.05 ± 0.012
GACTTAGTGG | 1.03 ± 0.077
GACTTAGTTG | 0.987 ± 0.0068
GACTTCGGGA | 1.13 ± 0.052
GACTTGGGCG | 0.957 ± 0.084
GACTTGTAGG | 0.9844 ± 0.0049
GACTTTGGGC | 1.01 ± 0.038
GACTTTTCGA | 1 ± 0.04
GAGAAAATAT | 1 ± 0.038
GAGAAAATCT | 1.01 ± 0.033
GAGAAAGTTC | 1.06 ± 0.038
GAGAAATTAT | 0.9772 ± 0.0067
GAGAAGAGGG | 1.04 ± 0.042
GAGAATAATA | 0.988 ± 0.032
GAGAATCGTC | 1.05 ± 0.064
GAGACTAGAT | 1.01 ± 0.017
GAGAGAATAG | 1.03 ± 0.034
GAGAGAATTT | 1 ± 0.02

Sequence | switch fluorescence ratio
GAGAGAGGCT | 0.9988 ± 0.0071
GAGAGAGGGC | 0.966 ± 0.073
GAGAGAGGGG | 0.984 ± 0.026
GAGAGAGTGG | 0.976 ± 0.032
GAGAGATTGT | 1.005 ± 0.0086
GAGAGCAAAT | 1.09 ± 0.048
GAGAGCCACC | 0.971 ± 0.061
GAGAGCCGTT | 1 ± 0.017
GAGAGCTGCG | 1 ± 0.039
GAGAGGATAG | 0.98157 ± 0.0003
GAGAGGGATG | 1.01 ± 0.043
GAGAGGGTGT | 1.05 ± 0.081
GAGAGGTGGG | 1.01 ± 0.024
GAGAGGTGTT | 1.06 ± 0.039
GAGAGTACTT | 0.9945 ± 0.0093
GAGAGTCATC | 1.035 ± 0.0087
GAGATAAGGG | 0.961 ± 0.061
GAGATAGCTT | 0.955 ± 0.043
GAGATAGGGA | 1.01 ± 0.029
GAGATATTGG | 0.99 ± 0.013
GAGATCGCC | 0.982 ± 0.016
GAGATCGGTG | 0.96 ± 0.023
GAGATCTTTG | 0.967 ± 0.015
GAGATGGTAG | 0.976 ± 0.0069
GAGATGTAGG | 1 ± 0.014

Sequence | switch fluorescence ratio
GAGATTGTGT | 0.9936 ± 0.0048
GAGCAAAGGT | 1.04 ± 0.031
GAGCAACTGA | 1.022 ± 0.0018
GAGCACGGGT | 1.04 ± 0.053
GAGCACGTTT | 0.9963 ± 0.0072
GAGCAGATTG | 1.02 ± 0.036
GAGCAGCTCG | 0.9995 ± 0.0059
GAGCATATTG | 1.03 ± 0.03
GAGCATGAAA | 0.974 ± 0.04
GAGCATTTCC | 1.1 ± 0.043
GAGCATTTTT | 0.969 ± 0.029
GAGCCGTATT | 1.02 ± 0.093
GAGCGCTAGG | 0.9952 ± 0.0043
GAGCGGATTT | 1.03 ± 0.019
GAGCTAGGGG | 1.03 ± 0.041
GAGCTAGTCA | 0.975 ± 0.037
GAGCTGCAGT | 0.947 ± 0.047
GAGCTTTCCG | 1.19 ± 0.26
GAGGAAAGCG | 1.04 ± 0.089
GAGGAAGATT | 1.02 ± 0.021
GAGGAAGGAA | 1.04 ± 0.062
GAGGAAGTAT | 0.978 ± 0.0024
GAGGAAGTCG | 0.9961 ± 0.0055
GAGGACGGGG | 1.01 ± 0.011
GAGGAGAACG | 0.949 ± 0.049

From the supplement of paper PMC10126150
